What was measured:
[1] = tested on: DLAT K259 Acetyl peptide
[2] = tested on: DLAT K259 Lipoyl peptide

recombinant SIRT5 (Sigma, cat. #SRP0119-100UG), sequence (chain, as listed by the source): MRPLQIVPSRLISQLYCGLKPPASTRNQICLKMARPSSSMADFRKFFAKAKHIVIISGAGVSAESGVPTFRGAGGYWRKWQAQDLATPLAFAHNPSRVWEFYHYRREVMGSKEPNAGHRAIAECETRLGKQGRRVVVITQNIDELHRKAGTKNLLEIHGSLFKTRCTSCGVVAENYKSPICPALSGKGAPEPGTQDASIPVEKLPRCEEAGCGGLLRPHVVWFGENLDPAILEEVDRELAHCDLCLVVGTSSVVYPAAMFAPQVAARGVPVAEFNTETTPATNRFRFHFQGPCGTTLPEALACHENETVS

Substance: recombinant SIRT5 (Sigma, cat. #SRP0119-100UG)
- in vitro deacylation kinetics [1]: low, but detectable activity was measured for DLAT acetyl
- in vitro deacylation kinetics [2]: no activity was detected for DLAT lipoyl (SEQ ID NO: 8) reactions
